Measured values reported in patent US20250313625A1 (ELPISCIENCE SUZHOU BIOPHARMA, published 2025).

What was measured:
[1] = biological target: T1, human LAG3 (form used in Octet, Biacore and HDX-MS not given) (human, UniProt P18627 23-450, limits assumed); assay: BLI (Octet)
T1 sequence (looked up): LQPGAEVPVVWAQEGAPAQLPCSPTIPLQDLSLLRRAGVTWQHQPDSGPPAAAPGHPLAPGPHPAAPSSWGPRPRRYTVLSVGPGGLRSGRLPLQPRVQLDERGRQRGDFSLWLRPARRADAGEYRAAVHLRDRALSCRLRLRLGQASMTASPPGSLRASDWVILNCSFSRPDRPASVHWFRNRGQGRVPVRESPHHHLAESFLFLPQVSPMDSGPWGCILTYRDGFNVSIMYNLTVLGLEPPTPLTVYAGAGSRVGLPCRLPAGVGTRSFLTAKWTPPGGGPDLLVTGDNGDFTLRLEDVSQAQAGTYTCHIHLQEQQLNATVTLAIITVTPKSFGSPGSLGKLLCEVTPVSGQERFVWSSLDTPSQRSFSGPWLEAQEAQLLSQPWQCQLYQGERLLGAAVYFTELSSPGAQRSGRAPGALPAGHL

[2] = biological target: T1, human LAG3 (form used in Octet, Biacore …); assay: BLI (Octet), 1:1 fit
Experimental: The purified chimeric antibodies were characterized for binding affinity against human LAG3 using Bio-Layer Interferometry technology (Octet system). The association and dissociation curves were fit with 1:1 binding model, and the Ka/Kd/KD values for each antibody were calculated.

[3] = biological target: T2, mFc tagged human LAG3 ECD recombinant protein (human, UniProt P18627 23-450); assay: competitive ELISA: mFc tagged human LAG3 ECD binding to plate coated LSECtin ECD
T2 construct: extracellular domain; purchased from Biointron; not shown: mouse IgG Fc (mFc) tag
T2 sequence (looked up): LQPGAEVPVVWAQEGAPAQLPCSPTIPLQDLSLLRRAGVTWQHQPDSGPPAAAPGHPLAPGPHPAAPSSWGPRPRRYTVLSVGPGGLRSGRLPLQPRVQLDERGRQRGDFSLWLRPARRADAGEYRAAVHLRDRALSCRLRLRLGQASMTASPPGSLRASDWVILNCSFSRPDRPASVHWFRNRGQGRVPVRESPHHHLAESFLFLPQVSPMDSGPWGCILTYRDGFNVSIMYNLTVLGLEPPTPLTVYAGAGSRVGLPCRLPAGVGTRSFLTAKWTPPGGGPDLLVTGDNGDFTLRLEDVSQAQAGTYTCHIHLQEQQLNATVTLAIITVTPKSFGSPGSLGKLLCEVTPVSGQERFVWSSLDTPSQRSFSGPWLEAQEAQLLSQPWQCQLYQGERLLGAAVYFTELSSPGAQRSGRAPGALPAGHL
Experimental: Activity of the purified chimeric antibodies to block LAG3 and LSECtin interaction was determined by competitive ELISA assay. […] After washing, HRP labeled anti-mouse Fc 2nd antibody (Sigma) was added and incubated at 37° C. for 1 hour. Then, 100 μl/well of TMB solution (Biotechnology) was added. After incubation for 15 minutes at room temperature, the reaction was stopped by the addition of 50 μl of 1N HCl. OD 450 nm was read.

[4] = biological target: T3, LAG3 D1 domain extra loop peptide (biotin labelled (site not stated)); assay: ELISA format I: biotin labelled LAG3 D1 domain extra loop peptide on plate coated antibody; axis printed as Ab Conc. (nM)
T3 peptide: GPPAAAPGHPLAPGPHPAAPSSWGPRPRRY
Experimental: In ELISA binding assay of format I (FIG. 9A), biotin labelled LAG3 D1 domain extra loop peptide was incubated with ELISA microplate coated anti-LAG3 antibodies. After washing, HRP labeled anti-SA 2nd antibody (Sigma) was added and incubated at 37° C. for 1 hour. Then, 100 μl/well of TMB solution (Biotechnology) was added. After incubation for 15 minutes at room temperature, the reaction was stopped by the addition of 50 μl of 1N HCl. OD 450 nm was read. In ELISA binding assay of format II (FIG. 9B), biotin labelled LAG3 D1 domain extra loop peptide and anti-LAG3 antibodies were co-incubated in ELISA microplate coated with SA. After washing, HRP labeled anti-human Fc 2nd antibody (Sigma) was added and incubated at 37° C. for 1 hour. Then, 100 μl/well of TMB solution (Biotechnology) was added. After incubation for 15 minutes at room temperature, the reaction was stopped by the addition of 50 μl of 1N HCl. OD 450 nm was read.

Kd [1]: 0.456 nM | koff [1]: 0.000161 s⁻¹ | kon [1]: 352000 M⁻¹ s⁻¹ | Kd [2]: 0.648 nM | koff [2]: 0.000233 s⁻¹ | kon [2]: 359000 M⁻¹ s⁻¹ | %Blocking at 4 nM [3]: 27.8% | %Blocking at 20 nM [3]: 94.4% | %Blocking at 100 nM [3]: 94.8% | binding result [4]: no binding (tested: about 300 nM)
B1: 023c (antibody, human IgG4, V domains shown)
VH: QIQLVQSGPVLKKPGETVKISCKASGYTFTESPMNWVKQAPGRGFKWMGMIYTDTGEPTYAEEFKGRFAFSLETSASTAYLQINNLKSEDTATYFCVSDYGSILYWYFDVWGTGTTVTVSS
VL: DIVMTQSHKFMSTSVGDRVSITCKASQDVSTAVAWYQQTPGQSPKLLIYSASYRYTGVPDRFTGSGSGTDFTFTISSVQAEDLAVYYCQQHYNSPPTFGAGTKLELK
notes: human IgG4 S228P / kappa chimeric antibody; also called chimeric antibody 023; ES005-023c; not shown: human kappa light chain constant region (pcDNA3.4-hIgGk vector)
